Patent publication US11827885

Key:
RNase A = RNase A (UniProt P61823); assay: cell-based or functional assay
[1] = target: T1, Murine RNase Inhibitor (New England Biolabs, Ipswich, MA), Q91VI7
T1 chain: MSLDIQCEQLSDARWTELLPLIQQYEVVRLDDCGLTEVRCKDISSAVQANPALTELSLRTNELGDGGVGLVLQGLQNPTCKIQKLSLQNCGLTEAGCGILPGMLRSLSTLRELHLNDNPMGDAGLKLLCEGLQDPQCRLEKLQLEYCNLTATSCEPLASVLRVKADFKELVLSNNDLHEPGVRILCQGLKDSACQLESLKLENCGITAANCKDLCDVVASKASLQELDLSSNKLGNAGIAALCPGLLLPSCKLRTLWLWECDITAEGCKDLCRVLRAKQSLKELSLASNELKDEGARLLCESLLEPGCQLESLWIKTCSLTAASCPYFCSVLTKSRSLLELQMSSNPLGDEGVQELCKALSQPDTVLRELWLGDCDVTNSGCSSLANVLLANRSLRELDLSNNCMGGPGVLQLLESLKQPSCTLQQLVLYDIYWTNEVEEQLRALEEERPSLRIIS

Molecule: SUPERase-In (ThermoFisher Scientific, Waltham, MA)
- inhibition of RNA degradation (gel), reaction at 60° C. (RNase A): < 50%

B1: RNase A (protein)
chain: KETAAAKFERQHMDSSTSAASSSNYCNQMMKSRNLTKDRCKPVNTFVHESLADVQAVCSQKNVACKNGQTNCYQSYSTMSITDCRETGSSKYPNCAYKTTQANKHIIVACEGNPYVPVHFDASV
- RNA digestion (fluorescence of RNaseAlert RNA substrate, 37° C., 90 minutes) [1]: Three RNase A aptamers and Murine RNase Inhibitor are able to inhibit RNA digestion, but Murine Inhibitor show a slows a loss in RNase inhibition over time
